Test results: US20220381770A1

How the values were obtained:
[1] = target: Survivin96-104/HLA-A2-Fc-STag; assay: flow cytometry of pMHC-Fc-loaded α-Fc-based T-Plex beads stained with BB7.2
[2] = target: HCMV pp65495-503/HLA-A2-Fc (Human cytomegalovirus); assay: as above

## αHLA-A2 mAb (Clone BB7.2/BioLegend) of IgG2b isotype (antibody)
[1]
  fold MFI against pMHC-pCC-Fc-loaded SAv-based T-Plex beads: 4 fold
[2]
  fold MFI against pMHC-pCC-Fc-loaded SAv-based T-Plex beads: 4 fold
